Tests used:
human histone 3.3 = human histone 3.3 (human, UniProt P84243 2-136); assay: in vitro histone binding assay, histone coated on plate, anti-lunasin polyclonal antibody + HRP secondary, A450
human histone 4 = human histone 4 (human, UniProt P62805 2-103); assay: as above

Binder | binding result (human histone 3.3) | binding result (human histone 4)
SKWQHQQDSCRKQLQGVNLTPCEKHIMEKIQGRGDDDDDDDDD (Made by peptide synthesis; It is the 43-residue published form of lunasin; also called synthetic lunasin created by peptide synthesis) [synthetic lunasin] | binds | binds
SKWQHQQDSCRKQLQGVNLTPCEKHIMEKIQGRGDDDDDDDDDN (Purified from soybean white flake and released from the lunasin-containing complex with a reducing agent; also called purified lunasin; highly purified soybean-derived lunasin) [soybean-derived lunasin (lunasin purified from soybean white flake)] | binds | binds

Source: patent US20120220538A1 (UNIVERSITY OF LOUISVILLE RESEARCH FOUNDATION, published 2012)
